To fix the notation:
T1: PUF4 RNA-binding domain (Saccharomyces cerevisiae, UniProt P25339 537-888)
T1 sequence: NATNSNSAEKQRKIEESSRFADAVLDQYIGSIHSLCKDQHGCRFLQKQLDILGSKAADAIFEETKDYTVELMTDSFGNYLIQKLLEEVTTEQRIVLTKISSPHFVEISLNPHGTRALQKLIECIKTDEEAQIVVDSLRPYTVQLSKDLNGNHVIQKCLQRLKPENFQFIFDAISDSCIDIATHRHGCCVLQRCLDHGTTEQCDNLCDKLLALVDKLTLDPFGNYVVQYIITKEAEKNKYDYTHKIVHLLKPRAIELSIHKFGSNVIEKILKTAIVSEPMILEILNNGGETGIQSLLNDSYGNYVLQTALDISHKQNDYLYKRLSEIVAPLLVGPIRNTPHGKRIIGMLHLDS

B1: Ic_S2_P3E.1_K3.1_C3.1_H3.1_A3.1_F3.1_[T7G]_[A8C]_T3.1 (ssRNA)
RNA: UUUGAUUAAUAUGAUAUCGUUCUUUCUUGUAUAGCUUCUUUCUCGAUAUCAUAUUAAUCUUU
B2: Ic_S2_P3E.1_K3.1_C3.1_H3.1_A3.1_F3.1_[T7C]_[A8C]_T3.1 (ssRNA)
RNA: B1 RNA with G34C
B3: Ic_S2_P3E.1_K3.1_C3.1_H3.1_A3.1_F3.1_[T7G]_[A8T]_T3.1 (ssRNA)
RNA: B1 RNA with C35U
B4: Ia_S2_P3E.1_K3.1_C3.1_H3.1_[T1C]_A3.1_F3.1_T3.1 (ssRNA)
RNA: B1 RNA with U28C, G34U, C35A
B5: Ic_S2_P3E.1_K3.1_C3.1_H3.1_A3.1_F3.1_[T7C]_[A8G]_T3.1 (ssRNA)
RNA: B1 RNA with G34C, C35G

Residue numbers refer to the chain shown, from its start. In names and notes the source's numbering stands.

This data set concerns the target T1, PUF4 RNA-binding domain. The data set is described as follows: Mg; RNA-MaP; 20 mM Na-HEPES pH 7.4, 30 mM KOAc, 0.75 mM MgCl2, 0.1% Tween-20, 5% glycerol, 0.1 mg/mL BSA, 2 mM DTT; 25 C; 0.0125-409.6 nM protein. The settings on record: tags: N-His6-TEV cleaved; C-SNAP kept, Cy3B-labelled; label: tethered on chip by stalled RNA polymerase.
As to UCUCUUUGUACCCUUAUUAUCUCUU (ssRNA) [Ie_S1_P4E.1_K4.1_C4.1_H4.1_[+4CCCT]_A4.1_F4.1_T4.1], the Kd (in general, the equilibrium constant for the complex coming apart) is 6.31 nM.

Regarding UCUCUUUGUCUAUAUUAUCUCUU (ssRNA) [Ie_S1_P4E.1_K4.1_C4.1_H4.1_[+2TC]_A4.1_F4.1_T4.1], the affinity, expressed as Kd, was 82.9 nM.

Regarding UCUCUUUCCUCUGUAUAUUAUCUCUU (ssRNA) [Ie_S1_P4E.1_K4.1_C4.1_H4.1_[+1CCTCT]_A4.1_F4.1_T4.1], binding was characterised by a dissociation constant (Kd) of 0.539 nM.

Consider UCUCUUUGUAUCUCUUAUUAUCUCUU (ssRNA) [Ie_S1_P5E.1_K5.1_C5.1_H5.1_[+4TCTC]_A5.1_F5.1_T5.1], for which the Kd came out at 21.8 nM.

The molecule UCUCUUUGUUUCCUAUAUUAUCUCUU (ssRNA) [Ie_S1_P4E.1_K4.1_C4.1_H4.1_[+3TTCCT]_A4.1_F4.1_T4.1] returned a Kd of 58.7 nM.

Consider UCUCUUUGCUAUAUUAUCUCUU (ssRNA) [Ie_S1_P4E.1_K4.1_C4.1_H4.1_[+2C]_A4.1_F4.1_T4.1], for which the Kd was 107 nM.

UCUCUUUUCUCUGUAUAUUAUCUCUU (ssRNA) [Ie_S1_P4E.1_K4.1_C4.1_H4.1_[+1TCTCT]_A4.1_F4.1_T4.1] yielded a Kd of 0.586 nM.

As for UCUCUUUGUACUCUUAUUAUCUCUU (ssRNA) [Ie_S1_P5E.1_K5.1_C5.1_H5.1_[+4CTC]_A5.1_F5.1_T5.1], binding was put at a Kd of 6.55 nM.

In turn, UCUCUUUGCCUUAUAUUAUCUCUU (ssRNA) [Ie_S1_P4E.1_K4.1_C4.1_H4.1_[+2CCT]_A4.1_F4.1_T4.1] returned a Kd of 1330 nM.

For the molecule UCUCUUUGUCUCUCAUAUUAUCUCUU (ssRNA) [Ie_S1_P4E.1_K4.1_C4.1_H4.1_[+3CTCTC]_A4.1_F4.1_T4.1], the Kd was found to be 948 nM.

The molecule UCUCUUUGUACUUUAUUAUCUCUU (ssRNA) [Ie_S1_P5E.1_K5.1_C5.1_H5.1_[+4CT]_A5.1_F5.1_T5.1] had a Kd of 2.73 nM.

UCUCUUUGCUCUCUAUAUUAUCUCUU (ssRNA) [Ie_S1_P4E.1_K4.1_C4.1_H4.1_[+2CTCTC]_A4.1_F4.1_T4.1]: the Kd was found to be 733 nM.

As for UCUCUUUGUAUCUAUUAUCUCUU (ssRNA) [Ie_S1_P5E.1_K5.1_C5.1_H5.1_A5.1_[+5C]_F5.1_T5.1], binding was put at a Kd of 13.7 nM.

UCUCUUUGUAUUUAUUAUCUCUU (ssRNA) [Ie_S1_P4E.1_K4.1_C4.1_H4.1_[+4TT]_A4.1_F4.1_T4.1]: the affinity, expressed as Kd, was 16.2 nM.

The molecule UCUCUUUGCUCUAUAUUAUCUCUU (ssRNA) [Ie_S1_P4E.1_K4.1_C4.1_H4.1_[+2CTC]_A4.1_F4.1_T4.1] had a Kd of 583 nM.

For the molecule B1, the Kd is 109 nM.

As for B2, binding was put at a Kd of 21.1 nM.

In turn, B3 came in with a Kd of 25.9 nM.

B4 registered a Kd of 136 nM.

B5: the affinity, expressed as Kd, was 35.1 nM.

Regarding UCUCUUUGUCUCUUAUAUUAUCUCUU (ssRNA) [Ie_S1_P4E.1_K4.1_C4.1_H4.1_[+2TCTCT]_A4.1_F4.1_T4.1], the Kd came out at 134 nM.

On to UCUCUUUGUAUUUUAUUAUCUCUU (ssRNA) [Ie_S1_P5E.1_K5.1_C5.1_H5.1_[+4TT]_A5.1_F5.1_T5.1], for which binding was put at a Kd of 2.74 nM.

For UCUCUUUGUUCUCUAUAUUAUCUCUU (ssRNA) [Ie_S1_P4E.1_K4.1_C4.1_H4.1_[+3TCTCT]_A4.1_F4.1_T4.1], the affinity, expressed as Kd, was 49.6 nM.

The molecule UCUCUUUGUACCUUAUUAUCUCUU (ssRNA) [Ie_S1_P4E.1_K4.1_C4.1_H4.1_[+4CCT]_A4.1_F4.1_T4.1] gave a Kd of 4.83 nM.

Molecule UCUCUUUGUCUCAUAUUAUCUCUU (ssRNA) [Ie_S1_P4E.1_K4.1_C4.1_H4.1_[+3CTC]_A4.1_F4.1_T4.1] registered a Kd of 37.3 nM.

In turn, UCUCUUUGUAUCUCUAUUAUCUCUU (ssRNA) [Ie_S1_P5E.1_K5.1_C5.1_H5.1_A5.1_[+5CTC]_F5.1_T5.1] showed a Kd of 13.2 nM.

Molecule UCUCUUUGUAUAUUUAUCUCUU (ssRNA) [Ie_S1_P4E.1_K4.1_C4.1_H4.1_A4.1_F4.1_[+8T]_T4.1] yielded a Kd of 2.39 nM.

Regarding UCUCUUUGUCUCUAUAUUAUCUCUU (ssRNA) [Ie_S1_P4E.1_K4.1_C4.1_H4.1_[+3CTCT]_A4.1_F4.1_T4.1], the Kd turned out to be 121 nM.

UCUCUUUGUAUCUUAUUAUCUCUU (ssRNA) [Ie_S1_P4E.1_K4.1_C4.1_H4.1_[+4TCT]_A4.1_F4.1_T4.1]: the Kd worked out at 4 nM.

As to UCUCUUUGUACCUCUUAUUAUCUCUU (ssRNA) [Ie_S1_P4E.1_K4.1_C4.1_H4.1_[+4CCTCT]_A4.1_F4.1_T4.1], the affinity, expressed as Kd, was 27.7 nM.

UCUCUUUGCUCUUAUAUUAUCUCUU (ssRNA) [Ie_S1_P4E.1_K4.1_C4.1_H4.1_[+2CTCT]_A4.1_F4.1_T4.1] registered a Kd of 984 nM.

Molecule UCUCUUUGCCCUUAUAUUAUCUCUU (ssRNA) [Ie_S1_P4E.1_K4.1_C4.1_H4.1_[+2CCCT]_A4.1_F4.1_T4.1] gave a Kd of 1080 nM.

For the molecule UCUCUUUGUCUUAUAUUAUCUCUU (ssRNA) [Ie_S1_P4E.1_K4.1_C4.1_H4.1_[+2TCT]_A4.1_F4.1_T4.1], the Kd was 45.9 nM.

The molecule UCUCUUUGUACUUAUUAUCUCUU (ssRNA) [Ie_S1_P5E.1_K5.1_C5.1_H5.1_[+4C]_A5.1_F5.1_T5.1] came in with a Kd of 14.3 nM.

As to UCUCUUUGUACCUCUAUUAUCUCUU (ssRNA) [Ie_S1_P4E.1_K4.1_C4.1_H4.1_[+4CCTC]_A4.1_F4.1_T4.1], the affinity, expressed as Kd, was 12.7 nM.

The molecule UCUCUUUGCUUAUAUUAUCUCUU (ssRNA) [Ie_S1_P4E.1_K4.1_C4.1_H4.1_[+2CT]_A4.1_F4.1_T4.1] returned a Kd of 870 nM.

The molecule UCUCUUUGUAUCCUAUUAUCUCUU (ssRNA) [Ie_S1_P4E.1_K4.1_C4.1_H4.1_[+4TCC]_A4.1_F4.1_T4.1] came in with a Kd of 5.92 nM.

Molecule UCUCUUUGUUUCCAUAUUAUCUCUU (ssRNA) [Ie_S1_P4E.1_K4.1_C4.1_H4.1_[+3TTCC]_A4.1_F4.1_T4.1] returned a Kd of 83.7 nM.

UCUCUUUGUACCCUUUAUUAUCUCUU (ssRNA) [Ie_S1_P5E.1_K5.1_C5.1_H5.1_[+4CCCT]_A5.1_F5.1_T5.1] yielded a Kd of 17.8 nM.

On to UCUCUUUGUAUUAUUAUCUCUU (ssRNA) [If_S1_P5E.1_K5.1_C5.1_H5.1_A5.1_F5.1_T5.1], for which binding was put at a Kd of 4.68 nM.

On to UCUCUUUGCCUAUAUUAUCUCUU (ssRNA) [Ie_S1_P4E.1_K4.1_C4.1_H4.1_[+2CC]_A4.1_F4.1_T4.1], for which the affinity, expressed as Kd, was 1390 nM.

On to UCUCUUUGUUCUAUAUUAUCUCUU (ssRNA) [Ie_S1_P4E.1_K4.1_C4.1_H4.1_[+3TCT]_A4.1_F4.1_T4.1], for which the affinity, expressed as Kd, was 27.2 nM.

In turn, UCUCUUUGUUCAUAUUAUCUCUU (ssRNA) [Ie_S1_P4E.1_K4.1_C4.1_H4.1_[+3TC]_A4.1_F4.1_T4.1] displayed a Kd of 134 nM.

UCUCUUUGUAUUCCUAUUAUCUCUU (ssRNA) [Ie_S1_P5E.1_K5.1_C5.1_H5.1_A5.1_[+5TCC]_F5.1_T5.1] registered a Kd of 10.3 nM.

Take UCUCUUUGCCUCUUAUAUUAUCUCUU (ssRNA) [Ie_S1_P4E.1_K4.1_C4.1_H4.1_[+2CCTCT]_A4.1_F4.1_T4.1]: binding was put at a Kd of 2130 nM.

UCUCUUUGUUUAUAUUAUCUCUU (ssRNA) [Ie_S1_P4E.1_K4.1_C4.1_H4.1_[+2TT]_A4.1_F4.1_T4.1] showed a Kd of 60.9 nM.

As for UCUCUUUUUCCUGUAUAUUAUCUCUU (ssRNA) [Ie_S1_P4E.1_K4.1_C4.1_H4.1_[+1TTCCT]_A4.1_F4.1_T4.1], the Kd turned out to be 1.18 nM.

UCUCUUUGUACCCUAUUAUCUCUU (ssRNA) [Ie_S1_P4E.1_K4.1_C4.1_H4.1_[+4CCC]_A4.1_F4.1_T4.1]: the affinity, expressed as Kd, was 5.85 nM.

In turn, UCUCUUUGUUCCUAUAUUAUCUCUU (ssRNA) [Ie_S1_P4E.1_K4.1_C4.1_H4.1_[+2TTCC]_A4.1_F4.1_T4.1] gave a Kd of 101 nM.

In the case of UCUCUUUGUUCUCAUAUUAUCUCUU (ssRNA) [Ie_S1_P4E.1_K4.1_C4.1_H4.1_[+3TCTC]_A4.1_F4.1_T4.1], the Kd is 103 nM.

On to UCUCUUUCCCUUGUAUAUUAUCUCUU (ssRNA) [Ie_S1_P4E.1_K4.1_C4.1_H4.1_[+1CCCTT]_A4.1_F4.1_T4.1], for which the affinity, expressed as Kd, was 0.454 nM.

UCUCUUUGCCUCUAUAUUAUCUCUU (ssRNA) [Ie_S1_P4E.1_K4.1_C4.1_H4.1_[+2CCTC]_A4.1_F4.1_T4.1] gave a Kd of 1010 nM.

The molecule UCUCUUUGUAUUCCUUAUUAUCUCUU (ssRNA) [Ie_S1_P4E.1_K4.1_C4.1_H4.1_[+4TTCCT]_A4.1_F4.1_T4.1] came in with a Kd of 19 nM.

Molecule UCUCUUUGUAUUCUAUUAUCUCUU (ssRNA) [Ie_S1_P5E.1_K5.1_C5.1_H5.1_A5.1_[+5TC]_F5.1_T5.1] registered a Kd of 3.27 nM.

As to UCUCUUUGUCCUAUAUUAUCUCUU (ssRNA) [Ie_S1_P4E.1_K4.1_C4.1_H4.1_[+2TCC]_A4.1_F4.1_T4.1], the affinity, expressed as Kd, was 40.4 nM.

UCUCUUUGUUUUAUAUUAUCUCUU (ssRNA) [Ie_S1_P4E.1_K4.1_C4.1_H4.1_[+3TTT]_A4.1_F4.1_T4.1]: the Kd turned out to be 32.9 nM.

These data come from publication PMC9352680, “A comprehensive thermodynamic model for RNA binding by the Saccharomyces cerevisiae Pumilio protein PUF4”.
